Details: Bacillus amyloliquefaciens; pH 6.3; 25 °C; Urea; Fluorescence; MES 50 mM; NaCl 0.15 M; reversible: yes; whole UniProt chain shown

B1: Ribonuclease wild type, P00648 (protein)
chain: MMKMEGIALKKRLSWISVCLLVLVSAAGMLFSTAAKTETSSHKAHTEAQVINTFDGVADYLQTYHKLPDNYITKSEAQALGWVASKGNLADVAPGKSIGGDIFSNREGKLPGKSGRTWREADINYTSGFRNSDRILYSSDWLIYKTTDHYQTFTKIR
  denaturant m value: 1.92 kcal/mol/M
  denaturant midpoint (higher = more stable): 4.58 M
  unfolding free energy: 8.79 kcal/mol

From FireProtDB (doi:10.1021/bi00212a026)
